Blank lines part the entries; values can stand above or below the molecule they belong to.
Key:
[1] = biological target: FGFR (fibroblast growth factor receptor on NIH3T3 mouse fibroblast cells); assay: cell-based or functional assay
[2] = tested on: mouse fibroblast cell line NIH/3T3; assay: Inhibition of growth factor activity of VHH homodimer by FGFR inhibitor (fibroblasts); format: cell-based; conditions: 20 nM
Excerpt: Promotion of Fibroblast Growth by VHH (Homodimer)” described above.
It was examined whether the cell growth activities of bFGF and the single-domain antibody were inhibited by NPV-BGJ398 which is an FGFR kinase inhibitor.

[3] = tested on: NIH3T3 (mouse fibroblast cell line); assay: Inhibition of growth factor activity of VHH homodimer by FGFR antagonist; format: cell-based; conditions: 20 nM
Procedure: The cell growth assay for FGF2 was performed according to the following procedure. On Day 1, a suspension including 2.5×10^4 cells/mL of NIH3T3 in DMEM of 10% CS and PS(+) was created, seeded on a CulturPlate-96 (White Opaque 96-well Microplate, manufactured by Perkin Elmer, Cat #6005680) at 100 μL/well, and cultured in a 5% CO2 incubator at 37° C. for 16 to 24 hours. On Day 2, the medium was replaced with FGF2 (PeproTech Cat #AF-100-18B) or serum-free PS(+) DMEM including various test substances, and the cells were further cultured for 2 days. On Day 4, the 96-well plate was left at room temperature for 30 minutes, and then 100 μL of Cell Titer Glo 2.0 Reagent (manufactured by Promega Corporation) at room temperature was added to each well, followed by stirring at 500 rpm for 2 minutes using a plate mixer. The plate was further left to stand for 8 minutes, and then the luminescence in each well was measured with a Synergy HTX plate reader (manufactured by BioTek) with a sensitivity set (Gain) of 200 and a measurement time of 1 s/well.
The addition amounts of FGF2 and #1L4 (hereinafter also referred to as “#1-L4-#1”), which is a dimer of VHH #1 with a linker […], were each 10 or 100 ng/mL.

[4] = biological target: T1, FGFR4-Fc (human, UniProt P22455 22-369, limits assumed); assay: SPR (Biacore T200, same manner as Example 5, 1:1 model)
T1 construct: not shown: Fc part
T1 sequence (looked up): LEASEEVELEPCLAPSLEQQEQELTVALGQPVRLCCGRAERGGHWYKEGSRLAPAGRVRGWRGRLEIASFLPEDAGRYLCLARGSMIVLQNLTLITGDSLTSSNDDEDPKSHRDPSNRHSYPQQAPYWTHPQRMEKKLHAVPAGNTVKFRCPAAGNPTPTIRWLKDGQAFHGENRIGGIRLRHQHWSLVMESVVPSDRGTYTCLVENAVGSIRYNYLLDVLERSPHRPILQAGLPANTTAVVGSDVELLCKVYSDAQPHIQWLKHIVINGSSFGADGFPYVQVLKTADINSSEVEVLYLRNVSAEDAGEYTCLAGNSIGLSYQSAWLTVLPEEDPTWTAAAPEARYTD

[5] = biological target: T2, FGFR3-Fc (human, UniProt P22607 23-375); assay: as above
T2 chain: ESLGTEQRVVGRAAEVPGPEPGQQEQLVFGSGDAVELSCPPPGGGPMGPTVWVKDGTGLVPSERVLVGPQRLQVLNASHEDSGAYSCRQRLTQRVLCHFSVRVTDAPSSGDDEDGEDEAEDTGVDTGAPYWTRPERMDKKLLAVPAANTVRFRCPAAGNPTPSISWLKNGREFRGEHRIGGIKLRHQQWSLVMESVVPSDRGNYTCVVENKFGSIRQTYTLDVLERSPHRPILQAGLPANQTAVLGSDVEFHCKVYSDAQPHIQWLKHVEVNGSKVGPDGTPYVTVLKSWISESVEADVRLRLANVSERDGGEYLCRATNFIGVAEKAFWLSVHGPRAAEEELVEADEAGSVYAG

[6] = biological target: FGF Receptor 1β (IIIc)/Fc Chimera Human Recombinant Carrier-free (R & D Systems Cat. no. 661-FR) (human) (UniProt P11362); assay: SPR (Biacore T200, CAP chip, biotinylated FGFR1-Fc captured, VHH injected at 1.85-50 nM, single-cycle kinetics, 1:1 model, 25 C)
[7] = biological target: FGFR2-Fc (human) (UniProt P21802); assay: SPR (Biacore T200, same manner as Example 5, 1:1 model)
[8] = biological target: T3, FGFR1-DIII (FGFR1 extracellular domain, DIII domain) (human, UniProt P11362 251-365); assay: BLI (Octet 384), VHH Clone #1 captured on Anti-Penta-HIS sensor, FGFR1 protein in solution from 100 nM in 2-fold dilutions, global 1:1 fit
T3 construct: domain: DIII; Expressed in AAVpro293T cells from a synthesised DNA fragment
T3 sequence (looked up): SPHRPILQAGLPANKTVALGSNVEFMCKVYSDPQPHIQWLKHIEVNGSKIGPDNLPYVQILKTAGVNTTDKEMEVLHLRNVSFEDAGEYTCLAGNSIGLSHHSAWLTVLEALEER
Procedure: (§1) In the preparation for measurement, a tip of the sensor chip was immersed in 200 μL of the kinetics buffer for 10 minutes in order to hydrate the sensor chip. Thereafter, 70 μL of each measurement solution was added to a 384-well black plate (manufactured by Fortebio), and measurement was performed in the following steps 1) to 6). [0291] 1) Baseline step: Baseline measurement (30 seconds) in a kinetics buffer, [0292] 2) Loading step: Immobilization of a VHH antibody on a sensor (120 seconds), [0293] 3) Baseline step: Baseline measurement (30 seconds) in a kinetics buffer, [0294] […] 5) Dissociation step: Measurement in a kinetics buffer (120 seconds), [0296] 6) Regeneration step: Measurement in Glycin-HCl (pH 2.2) for 5 seconds and measurement in a kinetics buffer for 5 seconds are repeated three times.
(§2) After completion of the measurements, the measured value of a Reference (only the kinetics buffer) was subtracted from the actual measurement value, and Global Fitting was performed using a 1:1 binding model using Octet software to calculate the binding activity (FIG. 22).

[9] = biological target: T4, FGFR1-DIIDIII (FGFR1 extracellular domain, DII and DIII domains) (human, UniProt P11362 142-365); assay: as above
T4 construct: domain: DIIDIII; Expressed in AAVpro293T cells from a synthesised DNA fragment
T4 sequence (looked up): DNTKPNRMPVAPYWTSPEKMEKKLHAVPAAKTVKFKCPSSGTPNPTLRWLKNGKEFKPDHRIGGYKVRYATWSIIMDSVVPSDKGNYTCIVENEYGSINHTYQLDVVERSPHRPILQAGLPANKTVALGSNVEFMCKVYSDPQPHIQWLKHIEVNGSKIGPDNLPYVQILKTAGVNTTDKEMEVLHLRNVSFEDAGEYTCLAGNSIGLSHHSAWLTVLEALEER
Procedure: as §1, §2

[10] = biological target: T5, FGFR1-DII (FGFR1 extracellular domain, DII domain) (human, UniProt P11362 142-250); assay: BLI (Octet 384); VHH Clone #1 immobilised on an Anti-Penta-HIS sensor, FGFR1-DII in solution [A]
T5 construct: domain: DII; Expressed in AAVpro293T cells from a synthesised DNA fragment
T5 sequence (looked up): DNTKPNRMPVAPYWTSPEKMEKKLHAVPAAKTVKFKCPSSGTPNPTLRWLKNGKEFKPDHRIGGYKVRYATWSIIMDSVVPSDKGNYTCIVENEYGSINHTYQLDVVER
Procedure: as §1, §2

Molecule: basic FGF (PeproTech, AF-100-18B) (from UniProt P09038 135-288) (ligand)
EC50 of the growth of cultured fibroblasts (NIH/3T3, Cell Titer Glo luminescence) [1]: 5.1 nM

Molecule: CCN1CCN(c2ccc(Nc3cc(N(C)C(=O)Nc4c(Cl)c(OC)cc(OC)c4Cl)ncn3)cc2)CC1 [NVP-BGJ398]
effect of NVP-BGJ398 itself on cell growth [2]: little effect on cell growth | effect of NVP-BGJ398 itself on cell growth [3]: little effect on cell growth

Next, values leading:

Kd [4]: 22.2 nM | koff [4]: 0.0527 s⁻¹ | kon [4]: 2.37e+06 M⁻¹ s⁻¹ | Kd [5]: 1010 nM | koff [5]: 0.235 s⁻¹ | kon [5]: 232000 M⁻¹ s⁻¹ | Kd [6]: 1.74 nM | Kd [7]: 1630 nM | koff [7]: 0.776 s⁻¹ | kon [7]: 484000 M⁻¹ s⁻¹ | Kd [8]: 1.18 nM | koff [8]: 0.000351 s⁻¹ | kon [8]: 298000 M⁻¹ s⁻¹ | Kd [9]: 0.489 nM | koff [9]: 0.000141 s⁻¹ | kon [9]: 289000 M⁻¹ s⁻¹ | binding result [10]: no binding
B1: VHH Clone #1 (VHH monomer Clone #1) (VHH)
VHH: QLQLVESGGGSVQAGGSLRLSCAASRSLSRFNVWTWYRQAPVKQRELVASITKSGDTNYAESVKGRFIISRDDDKNTVYLQMNNLKSEDTGIYYCAGSYYSGSYLYPSPGGFSVWGQGTQVTVSS
notes: also called VHH #1; FGFR #1; not shown: C-terminal His tag (purified on Ni Sepharose, captured on Anti-Penta-HIS sensor)

Kd [6]: 1.02 nM | koff [6]: 0.00114 s⁻¹ | kon [6]: 1.11e+06 M⁻¹ s⁻¹
B2: VHH Clone #2 (VHH monomer Clone #2) (VHH, not shown: small tags and cut ends)
VHH: QVQLVESGGGLVQAGGSLRLSCAVPGSIFRFNTMGWYRQPPGKQRELVAQMSRGGITKYGDSVKGRFTITRDNAKNTVHLQMNSLKPEDTAVYYCAGSYYSGSYYYPSPQGFSVWGQGTQVTVSP

Source: patent publication US20240279618A1, “RECEPTOR TYROSINE KINASE AGONIST, COMPOSITION FOR CELL CULTURE MEDIUM, AND […] MAINTENANCE COMPOSITION” (SEKISUI CHEMICAL CO., LTD., priority 2021, published 2024)
